Results from publication PMC4904203.

Tests used:
[1] = target: nTRIP6 fused to the C-terminal half of Venus (VC); experiment: split reporter (BiFC, NanoBiT); Venus BiFC: VN and VC fusions co-transfected into C2C12 myoblasts with mCherry as transfection control; confocal imaging 24 h after transfection; cells with Venus complementation counted as percent of mCherry-positive cells (mean ± SD, three experiments); for Fig. 6a cells were first transfected with Trip6 siRNA or control siRNA; details: scale: %
[2] = target: MEF2C fused to the C-terminal half of Venus (VC) (UniProt Q8CFN5); experiment: as above
Sequence of UniProt Q8CFN5 (Q8CFN5 whole entry, the tested form may be a part): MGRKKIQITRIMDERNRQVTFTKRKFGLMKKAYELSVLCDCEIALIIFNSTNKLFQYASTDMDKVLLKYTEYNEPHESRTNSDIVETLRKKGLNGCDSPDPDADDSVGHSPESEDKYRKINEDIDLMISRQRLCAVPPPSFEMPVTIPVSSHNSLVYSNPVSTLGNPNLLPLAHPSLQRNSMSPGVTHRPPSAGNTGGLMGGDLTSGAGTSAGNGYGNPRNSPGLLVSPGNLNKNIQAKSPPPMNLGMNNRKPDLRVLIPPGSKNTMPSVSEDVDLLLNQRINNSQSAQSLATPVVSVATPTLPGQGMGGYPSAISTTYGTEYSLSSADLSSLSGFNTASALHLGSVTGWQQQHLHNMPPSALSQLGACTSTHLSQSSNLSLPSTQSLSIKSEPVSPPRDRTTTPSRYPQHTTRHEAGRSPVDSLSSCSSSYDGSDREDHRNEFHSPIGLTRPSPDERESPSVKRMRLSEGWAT

Row | percent of transfected cells with Venus complementation [1] | percent of transfected cells with Venus complementation [2] | Substance
1 | 79.5 | – | HDAC5-Flag fused to the N-terminal half of Venus (VN) (from UniProt Q9UQL6 1-1122) (enzyme)
2 | – | 70.6% | nTRIP6 (nuclear isoform of TRIP6) fused to the N-terminal half of Venus (VN) (natural protein)
3 | – | 65.5% | nTRIP6 lacking the LIM domains (pre-LIM) fused to VN (domain or fragment)
